Experiment: soluble fraction after stress (log2 fold change); higher = more stays soluble; pooled small domains, quantitative proteomics
Conditions: stress: 75 degC
With “HMARVSGIDLPKNKRGYIGLTYIYGIGRSTALHILNSAGVDPEKKVHEWNDDETTAIRNIINAEIKVEGAL” the “soluble fraction (log2)” value was -0.631.
With “HMASAKTVAQSGTYKFAKTTAIKSSASDAASTVGTYYKGNTVNYNAKVTTNGQTWLRYTSYSGAQYYVKVS” the “soluble fraction (log2)” value was -3.66.
With “HMASANMPDVLGLDAETAKQVLAAKGFTKVEIYPMESSEPANRVVRQSEDRDTMVALTKEILLGVSNGS” the “soluble fraction (log2)” value was 0.0531.
With “HMASENISYSQFINQVKNSMVESVSIEADGKTISGKYKSGSSFVTYGLNDPKLVDDLLSNNVEIL” the “soluble fraction (log2)” value was 0.143.
In the case of “HMASGLITEEQAKSKALAHAGLSASQVNFIWVKQDWEDGRRVYEVEFYTDDYQEYDYEIDARTGEILSFDY”, the “soluble fraction (log2)” value is reported as -1.84.
For “HMASIGTATVTADNLRLRSEAGTGAETLTMAPKGAEVTVEEDAGDGWYKVTYGDTEGYMSGEWLKITLA”, the “soluble fraction (log2)” value was -0.0355.
In the case of “HMASLIGEEKALQIALEHAGVALENVAYSQVKLENDDGRWEYDTEFYSGSKEYDYEIDASTGEILGYDHD”, the “soluble fraction (log2)” value is reported as 0.0872.
With “HMASLSITVNGETRRAAPGSIADLVRAIGLDPAKVAVERNGEIAPRSTLADVALADGDVLEIVHFVG” the “soluble fraction (log2)” value was -0.359.
For “HMASMEDILAEAKTKFQEGDLFKSVNEGIQGTHKLTLPLRIKESRIVDASGAAVYREGIWATVDK”, the “soluble fraction (log2)” value was 0.166.
For “HMASMNPVWLEFPNIPWGSAGWRMGWGEDYMRRWAKWYISLAEVERQSYKSDWPEPQEWEGFYAFMEHGT”, the “soluble fraction (log2)” value was -1.85.
For “HMASPEIAFLNKFYQLSNTVNEISVMKIVKNYQEKYQQRISIEQMAKTLKTMGYAVRNNIISNIEEAPV”, the “soluble fraction (log2)” value was -1.53.
For “HMASPRVWKDASSGRTLTGEFVELTKDAVKVRRANGDVVSLPLSRLTEEDITFAKGASETGGA”, the “soluble fraction (log2)” value was 0.198.
In the case of “HMASVLTAKLSEREVDVLNLLARGFTNADIAAQLHLSEGTVRNHVSTIFAKLDVNDRTQAAVIAIRHGL”, the “soluble fraction (log2)” value is reported as -2.52.
In the case of “HMASVLTGMLGRVTGELAPKGIVMVGNETWTAVSEDDSVIRIGEPVEVRSVEGLILTVFRRID”, the “soluble fraction (log2)” value is reported as -2.66.
In the case of “HMATAADLLQSATGVPRSDALLLLAKLLGVAKERLIAHPETVVSEKTQATFSDWIERVRGGFPTTYLLG”, the “soluble fraction (log2)” value is reported as -0.393.
For “HMATAEETTPLWARNRLSHAIFGPGSVTGEDERSFEVAFDNGDTLNFSKKSAHLYFTAMSSR”, the “soluble fraction (log2)” value was -0.169.
In the case of “HMATARPPPPPESRVEVLFDGRWYAGTVVGGALDEHRATVFFDADRLSQVINFAETGIRVLGT”, the “soluble fraction (log2)” value is reported as -0.123.
In the case of “HMATEYIIPTVTNKKLEEAIGIAQLRGFEISVDEYKPSDIDEGTVLEQSPAAGTNAKQGDTISVTVSSG”, the “soluble fraction (log2)” value is reported as 0.476.
For “HMATFTPYLVRITASVLNIRKGPGTTYAVTGQIKDRGVYTIVEQKGNWGRLKSGAGWISLSYTKK”, the “soluble fraction (log2)” value was -3.25.
For “HMATPAFEMYKVRRGDTPAGLAKEWGFPDMASFYRINPDARSDWKRGLQLVKPMNEMAVLQATA”, the “soluble fraction (log2)” value was -0.302.
For “HMATPKYMELVRWINEQIESKNLVPGQKMYSENTLKEMFGVSRQTVRHAIGVLENEGVIRRIQGSGTYIN”, the “soluble fraction (log2)” value was -1.51.
With “HMATPSTGQVSVVRLNLRVSPSISSPVVTRLTQGDTVKILAASDDGRWYKVATADGRTGWLYTIYITAE” the “soluble fraction (log2)” value was -1.34.
In the case of “HMATQTGTVKWFNEGKGFGFIAPDDGSKDLFAHFSEIKTTGFKTLAEAQRVEFEVTEGRKGLQASNIK”, the “soluble fraction (log2)” value is reported as 0.442.
In the case of “HMATRLPFGFAKRFGVLVEGKDDQITVYHKDGLQTAVILEIQRYLARPFRFEAVTPEEFERRLGLAYQS”, the “soluble fraction (log2)” value is reported as -2.44.
With “HMATSNDTQITGSLALRFDGSGDTFTVNVNGDDKLEINTEGTVIYKPLTTAPTYVSGGLFFSSSGDFYVG” the “soluble fraction (log2)” value was 0.00147.
For “HMATTIDFTVGDDVQVMNGPLESFTGKVTELNEASQKVKVDVVMFGRVTNVELDFVQVKKIT”, the “soluble fraction (log2)” value was -1.04.
In the case of “HMATTIEAPMPGKILDVKVNPGQAVSYGQVVLTMEAMKMETEIVAPADGTVASVLVKSGDMVETGAALVSL”, the “soluble fraction (log2)” value is reported as -0.344.
For “HMATTMSADWRPSEDAVGILVNAEINARFIEDAIPEFVLYWRERGAVHGAWNSKFIEHIRRQWAKFSAS”, the “soluble fraction (log2)” value was -2.84.
In the case of “HMATTPEETILEYINKNNRISKQEIADLMGITRDGVSYHIKKLRKNGLLEWIGSPSNGHWEIIE”, the “soluble fraction (log2)” value is reported as 0.38.
With “HMATVHPIRIQGGMTTQQGGKTVWLWVSDEGRLMTEDEIAGESGGTVSSRMVRGVRVLTGTGVIYG” the “soluble fraction (log2)” value was -1.96.
With “HMATVIDVATTLGRPITDPDEQRQVLNWIGKTERIISARLGDLAALDRQILADVISEVVARRARN” the “soluble fraction (log2)” value was -0.495.
For “HMATVNIGNLTFTHKGDYASGTTYAKNDVVYYSTNGNAYIAKQATQGNAPTSTAHWDVFAAGSGG”, the “soluble fraction (log2)” value was 0.245.
With “HMAVDAASSTIGKNVEVSVANEKGDYENFNGKVKSASIKDGVVYLELELKDTGEIKEVPYSSLTKIT” the “soluble fraction (log2)” value was 0.0437.
With “HMAVDPSVLTRRERQALAWIARGLSNKEVARGLNLAESTVKVHVQSILRKLNLTSRVQAAVYAIEHGIDK” the “soluble fraction (log2)” value was -3.08.
For “HMAVFRVGDKVKSMEGMIGEVRGINGRLIQVATPYGLRDYYPHQITKVENPLAAAPAPLNEEA”, the “soluble fraction (log2)” value was 0.767.
In the case of “HMAVGVFQKEDGYWGYRFSIIVDGKTIARRKFTDENGSKLRTKSEAVKARAAAMVAARMERVS”, the “soluble fraction (log2)” value is reported as -3.46.
In the case of “HMAVIILDEPTLGLDPAVRISLWQAIQSARDSTMSAFLITTHYIKEVADYLSAVKILDHGREVASGNPSAL”, the “soluble fraction (log2)” value is reported as -0.313.
In the case of “HMAVKLELYRVFKEVAETGNISAAAKNLYISQSAVSQSIKQLETALQARLFARSPRGVTLTGEGQMLYQYV”, the “soluble fraction (log2)” value is reported as -1.5.
With “HMAVKNAQIDVQQFFYSKSGEVDFGRKIKAIQSHFTPERLQSFTAAVPPSQWVSQLQVMWDSL” the “soluble fraction (log2)” value was -2.12.
For “HMAVLGIQPVFHRSTGQTVYKSSVNTAKGRVYLGLFPTLTEALEIKLKYMQEHGHTKGITNLTNKLKEL”, the “soluble fraction (log2)” value was -1.05.
With “HMAVPFTIDVSQNGRYFIEEDNQVVEVSIGFLEDRFLRIIKSNPDIEVIIRGDAKASYESIAELLAVLQ” the “soluble fraction (log2)” value was -0.904.
For “HMAVQPMDQVKAWLAEDNPADIKLLVPVLQKLDLLDYEQVRGEVADRAGVRKSLLDEAVKGN”, the “soluble fraction (log2)” value was 0.0888.
In the case of “HMAVRTELLALPAGWHGDASRLSTALAALQGVREAVVIASEGVAYLKVHGHDWDRDGARELLQN”, the “soluble fraction (log2)” value is reported as -1.12.
With “HMAVSGRGSIIGGVATVLDDFADSGKVWLEGEAWQARSSVPLKQDQEVVVRAMDGLVLVVEPVA” the “soluble fraction (log2)” value was -0.442.
With “HMAVSNWQKLVSSIQTQLKILALYHGPEDGIYGPNTRSAIMLYEENIGLPVTGEPSRELLAHMLDQTD” the “soluble fraction (log2)” value was -1.64.
In the case of “HMAVTNLTAKQISDTRWRVTWDSTLASPTYYVYRDGLLMMQTRQELYEFDAARGEQVQIDVLDDMAAAPAE”, the “soluble fraction (log2)” value is reported as -0.853.
With “HMAWAVRAGEGVLIRAGQPGFSATTRGTALSNGAIGEGVRVRNLGSGKEIQAWVVDKGEVETR” the “soluble fraction (log2)” value was 0.00511.
In the case of “HMAWIAVATKEDYSEYEWKELSPTTDWSTQTFDLGDLAGKTIYAVKMFFDHDTDVKDYKFNLGQLSITSN”, the “soluble fraction (log2)” value is reported as -0.189.
For “HMAYRLDVRNQTKGTYLVIQKKYWDKEKKQSRTKHHMSLGYVHDLQKLYSDPITHYKEVINQMNAEEKG”, the “soluble fraction (log2)” value was -2.09.
For “HMAYSEEDRRRVREELLTTALKLMSTQGIQHTTVEQVYRSVGISRSFFYAFFPTKEDLIVEAL”, the “soluble fraction (log2)” value was 0.0495.
With “HMDAAANTLRILKALSESPMSADRLAELLMEEGSGRNPRTIRRYIRALREAGFGVEHREGRYVL” the “soluble fraction (log2)” value was -0.387.
With “HMDAAEVEATARAMLRRSALNLLAQREQTAFELKQKLSRRFPEQAALLDEVIERLQEQGLQDDTR” the “soluble fraction (log2)” value was -0.0318.
With “HMDAEEISILLEKAVLQLPEKQKMIFQLKYFEDLSYKDIQIITGGSIGGLKANYHHAVTKIEKLLS” the “soluble fraction (log2)” value was 0.123.
With “HMDAEETLGARLRRLRQARGLSLAGLAQAAGLSKPSIWAWENGTTAPRRTSLLALARALDVPEQQLTGV” the “soluble fraction (log2)” value was -0.715.
With “HMDAEKHIVTPEAGLRLDRALTDALPNLSRSRVKQLINEGLVTTENKTITAPSYRVKYGDSFEISIPPPT” the “soluble fraction (log2)” value was -0.16.
For “HMDAIIVPSVLKMKPFEAEEKLSALGLRMKINDTVYIDNMKPGVIVEQSPTAEEDVKTDRVIYVIVNA”, the “soluble fraction (log2)” value was -0.327.
With “HMDAKQLQSLKNNNEQLAGFIVRLTNFYEGLSPDIDAELSKLRSHLSGKVDYTLATVSINKINQLFMLEP” the “soluble fraction (log2)” value was -2.97.
For “HMDALIWYVSRGQQKFGPFNYFGVLKALQDKSVFEFDYVWKEGTENWVRLAEHELFSQEKVRELLA”, the “soluble fraction (log2)” value was -0.554.
With “HMDAMLGEALRLIRVYHDLKQKQAAERLEVSTSYLSEIERGLKTPTLDIIQRYATVFDMPVSSIMFFSENL” the “soluble fraction (log2)” value was -3.1.
In the case of “HMDAMLSEQLREKRGELLIEVDAIAGNALRWATLSAEQQDAWAVYRQALLDVPQQAGFPNDVVWPINPN”, the “soluble fraction (log2)” value is reported as -0.42.
With “HMDAPKPDIGMSTDQIRSSLGQPGSQTRLETGGGRIYELWIYLYPDGKELQIYFDNAKVVKMEALS” the “soluble fraction (log2)” value was -1.19.
With “HMDAPLIIAETRVDVPDATVSDAVMMLDLRNTNALLFKNSGSGVLNMVYRRGDGTIGWGEPQ” the “soluble fraction (log2)” value was -0.011.
With “HMDASKVKIEDLGLSTRTENALVAASIRTAGGLARKSEMDLLSTDGLGEKGITEIKKALSDLGLELK” the “soluble fraction (log2)” value was 0.4.
For “HMDAVSTMIENLRVKTGKSLADWVGLAKGSGADKHGAMVGWLKSEHGLTHGYANLIAHETFRSAA”, the “soluble fraction (log2)” value was -0.129.
With “HMDAVTPVLSRIRDARFKRMVLPGDEIEISVTLIDTIGKFFNLSGQIRNKDKISLTVNFALALV” the “soluble fraction (log2)” value was 0.195.
In the case of “HMDDADPYEILGVERDAEDAEIKRAYHDLIRENHPDRLMAEGLPQEMIDVANEKVAFINDAYDRIEKLRGM”, the “soluble fraction (log2)” value is reported as -0.193.
With “HMDDENKIEVMINEEKVQLTGKDKYVFVDIFNYIDMDLTRIHGNLVLKLNGENASHNSLLKSGDKIEARWE” the “soluble fraction (log2)” value was -0.746.
For “HMDDERDRLVQQAMEGLSPALREILLLAYFQRMPYNQIAESLRIPLGTVKSRLHAAVAAFAKRWQELNRS”, the “soluble fraction (log2)” value was -0.77.
In the case of “HMDDFNLSPREKDVLGHLVKGNSYKMIADELQIGYDTVHSHIKKIYKKLHVNSMSEAVAKALKNKL”, the “soluble fraction (log2)” value is reported as 0.332.
For “HMDDGARQLVDQLNRLIANPAVSARIIHGYLILEGRVESEWEKTRTLLLAQVAGLPVIDLITVS”, the “soluble fraction (log2)” value was -2.35.

Reference: the domain aggregation screens of Martell et al. (2025)
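Further: 20 min heating vs room temperature control held 20 min.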
